Laboratory results as given in patent publication US20130109581A1, “POSITIVELY CHARGED SPECIES AS BINDING REAGENTS IN THE SEPARATION OF PROTEIN AGGREGATES FROM MONOMERS” (priority 2009, published 2013).

Target: Abeta (1-42) aggregates from Alzheimer's Disease Brain Homogenate (human) (UniProt P05067)
Test: MPA, AD brain homogenate in plasma, Abeta(1-42) ELISA

## biotinylated PSR1 (+++A+A) on streptavidin magnetic beads
  limit of detection: 3.8 mL/assay
